Among the data in a protein production outcome set (Wang et al. 2014) are protein production values, retold here.

The series is described as follows: label from the status in PepcDB records.
Turning to “MKAVVMAGGEGTRLRPMTANQPKPLLPVVNRPIMEHVLRLLKRHGFEDTVVTVQFLATLIRNYFGDGEELGMSLRYVAEEVPLGTAGSVKNAEEHLRGEPFIVISGDALTDIDLTDMVRFHRENGALVTIGLKRVANPLEFGIIIVDDNGRIQRFLEKPTWGQVFSDTVNTGIYIMEPEVLDHVAPGENVDWSGDVFPKLLKAGAPLYGYIADGYWEDVGTHESYLRAQADVLSGKVDVEIDGFEVSPGIWVAEGAEVDPEAVLKGPLYIGDYAKVEPGAELREFTVLGSNVVVRSEAFLHRAVVHDNVYVGTRANLRGCVVGKNTDIMAGVRIEEGTVVGEECVLESEAYLANNIKVYPFKTIEAGAVVNTNVIWESKGQRSLFGPRGVSGLINVEITPELAVRLASAYATTLKKGAVVTTARDASRAARTLKRAVISALTAAAINVQDLEATPLPLARFHTSQPGLSGGIALRTTPGDPQSVDIVFLDSSGADLSPAAQRKLERVFSRQEYRRAFPGEIAELSFPSRSVEAYTRELLQSIDLSGVAEANLKVVVDCAGGTGSLILPALLSQIDADVLTVNNRLDEASPTDTPAKRTRDLQRLGELVASARADFGVRFDPVGERIQLVDGSGTLVDDERALLVVLDLVAAERQGGRVALPVTTTRVAEQVANRHGVDVQWTPTSLDALTKAALADDIIFAADGRGGFILPEFSRTCDGIAAFVRLIGLVARTKMSLSQIDQRIPQAHLLRRSVPTPWAVKGSVMREVVEAAQGREIDTTDGVRVIEPDGSWALVLPDTAEAVTHLWAEGPDDETAQRLLEEWSAVVERAEG”, the protein production entry is on record as “failed”.

For “VARCQVPDCEADISELKGYHKRHRVCLRCATASFVVLDGENKRYCQQCGKFHLLPDFDEGKRSCRRKLERHNNRRKRKPVDKGGVA”, the protein production entry was “not failed”.

In the case of “MNKVLINDTTLRDGEQAAGVVFTLEEKVAIAKFLDTIGVPELEVGIPAMGEEEMRAICAISNLGLKANLLAWNRAVISDIKASVACGMERVHIAIPVSGIQIAAKFHGQWRVSLQRLKDCISFAVDQGLWVAVGGEDSSRADENFLLDVALYAQEWGASRFRFCDTVGVLDPFTTYGKVKLLVSALTIPVEVHTHNDFGMATANALAGIKAGASSVNTTVIGLGERAGNAALEEVVMAIKRIYGVDMGIDTPRLLELSQLVAAASGANVPPWKAIVGENTFAHESGIHAHGVLQNPDTYEPFAPEEVGWERRLVVGKHSGRHSVSNLLEQHGIFLNPEETQSVLDAVRQQSIKKKRSLTTEELLNLVKEQRYSHAAR”, the protein production result is listed as “failed”.

In the case of “MELKTAADSNFSESEESPETKGIRILEGDPKKAIIKLAVPMIVAMSVQTLYQLIDTFWVSGLGADALAAMGFVFPFYFISMALSNGLGIGGGAAISRKIGARDKAGADNVAVHTIIIMMLLVLIFTIPFYVFAPHIFSLVGAGKTTDLAVAYARVIFLGSIVIFFTNVANSILRSEGDSKRAMYAMVLGAALNIVIDPIFIYTFKMGIAGAAWATLLSLAVSSAMMLNWLFFKKDTFVSFDFKDFSFEKSIINDIFRIAVPASAQQLSMSLSMLVLNLIIVNVSSTDGVAVYSTGWRVATIAIAPLVGIATAVVSVSGAAFGAKDFEKAKTAHTYAVKVGLLIEGGVAAFTFIFAPQIAAVFTQTEEAAHIAPDLIQFLRIICIFYPTVSLGMLSTSLFQGAGKGFSALTANLLRTIVFTPLFAAFFAFNLNMGQVGAWWGIVAGNAIGAGVVYVWVKLYLSTILKTGPLHKPFEQGI”, the protein production entry is “failed”.

For the sequence “MSSLGSRSSTSIQPVILCGGSGTRLWPLSRQSYPKQFMPLLGGRSLLALTLERVSGLSSHPWCVASTEHRFLVIDAFEQCQLNGQVLLEPSARNTAAAIAVAALHAEDDALLLFCPADHYIPDAPAFVERVRQAQVAALDGALVTFGVFPTYPSSAYGYIEASAPWQDSGALHVQRFIEKPSATQAAELLLKGNMYWNAGIFLGLAREWRRALELHAPDILAACRDALREAESPVISRSGQTTVQSVVLHEPSFDACRSQSIDYAVMEHHRPICAVPFNGAWSDVGSWNAVADLSSADDKGNSSQGDAHLFDCQRTYVHAAGRRPVVALGLEDVCIVDTDDAVLVMPMSRAEDIKSVVGQLTDRSVAQALLHRRVARPWGWYDSLDQGERFQVKRIGVKPGASLSLQLHHHRAEHWTVVKGTAEITCGDRVFLLSENQSTYIPLGQRHRLHNPGKVELEIIEVQSGSYLAEDDIVRLEDNYGRTAPHCPGPAEADSTLIEQ”, the protein production result was “failed”.

As to “MIVGGRRAPLPRFFSRPVEFAALSLDPEKDPIDVFDDAYFFVHAAFSHVPGKYRGGEGDDPKSFHRLNLDGTVRLFEAAKRAGTRRCVFLSSRAAYGDYPPGIELVETMLPKPETLYGQIKLDAEGALTHLSAPGFAGVSLRATGVYGDLTPGKWDDLIADYLAGRPVAARAGTEVHGRDLGRAVRLMLETESTRISGEVFNISDITVDTQDILAPIRRETSGPHALPPPADKAALNPMSTAKIRALGWMPGGTPLFEETMRRLAAALPVSPRHRSAQDRQASSSGGRQPQTGTT”, the protein production result is reported as “failed”.

Regarding “MPLSYLSPSSSEERSDDPSKYDGDFGVPQICFCGKQLDLGWDLAVHEQCFCIDKRFGEHRELIQNAFKFGGDSNRLQINQIRAEIEDLKDRLDKKDAEITRLMDALGKK”, the protein production result was “failed”.

With “EVLLETLNATELNETTASLAVHQTMKENGQLFVSNSMAIRYLDRFMDSRPYRMFGNRGINGIDGIVSTALGMSAIAPTQQNVLLIGDLALYHDMNGLFLAKRYQLPLTIVLLNNNGGGIFSFLSQRTLREDDFEPLFGTPLDLDFSLVAELYGASYQEVKTIAELKQILQAAAEEPQFQVIEVKGNRQEN”, the protein production entry is on record as “not failed”.

As to “MVMEYELRTPLVKDQILKLKVGDVVYITGEIFTARDEAHARALEWMEEGKELPFSFDKGVVYHCGPLVKKNDEWRVVSAGPTTSARMNPFTPKILEKVECMGIIGKGGMSEEVVEAMRGKAAYFAFTGGAGALAAMSIKKVKGVVWEDLGMPEAVWLLEVERFGPCIVAIDAHGNSLYRR”, the protein production result is “not failed”.

For the sequence “MRRLKRDPLERAFLRGYQNGITGKSRDLCPFTHPTTRQSWLNGWREGRGDNWDGLTGTAGLQRLNQLQHVLEHHHHHH”, the protein production result was “failed”.

Consider “MRKINIFKGKHNPQRTAIDFFKYVGPGLLVTVGFIDPGNWASNVSAGSDYGYSLLWIVTLSTIMLIILQHNAAHLGIVTGDCLSEAVSKKFKPWLTNIILYSAIGAAISTAMAELLGGAIALNMLFRLPIKIGTLIMLSLVIWMLFSSSYKKLERWIIGFVSIIGLSFIFELLLVKVNWQVAAVSFVSPSFPKNSMPIIMSVLGAVVMPHNLFLHSEIIQSRQWNVEKEDVIKRQLRYEFLDTIISMIVGFAINSAMVLLAASTFFKMHVSVSELSQAQALLKPLLGGSASVVFALALLFSGIASTVTAGMAGGSIFAGIYKEPYDIEDSHTQIGVIITMVLAAVIIFFIKDPFKGLIYSQMILSIQLPITIFTQIYLTSSKKVMGKFSNSLLDRVLLGIIAVIVTALNIALLVSYF”, for which the protein production entry is listed as “failed”.

As for “MKNKIKFATIIHPDVSFFNKQEVGEGTIIYPGLIVVGRFKLGKHVILKQKCSLGNNIEIGDYSFISFNSNIDSNVMVKEGSYIEANTTILANSNIDKNTYIKEGSILYLEHHHHHH”, the protein production result is “failed”.

Regarding “MEAARSMTFSECAALYIKAHRSSWKNTKHADQWTNTIKTYCGPVIGPLSVQDVDTKLIMKVLDPIWEQKPETASRLRGRIESVLDWATVRGYREGDNPARWRGYLEHHHHHH”, the protein production result is on record as “not failed”.

Regarding “HERVGNLNQPIEVTALYSFEGQQPGDLNFQAGDRITVISKTDSHFDWWEGKLRGQTGIFPANYVTMN”, the protein production result is reported as “not failed”.

In the case of “MEDGVTPPLLITEKDTTMIRVKEEVKKQLWLSAPLIGVSLLQYSLQVISVMFVGHLGSLPLSAASIATSFASVTGFTFLLGTASALETLCGQAYGAKLYGKLGIQMQRAMFVLLILSVPLSIIWANTEQILVLVHQDKSIASVAGSYAKYMIPSLFAYGLLQCINRFLQAQNNVFPVFVCSGITTCLHLLLCWLFVLKTGLGYRGAALAISVSYWFNVILLSCYVKFSPSCSHSWTGFSKEAFQELYDFSKIAFPSAVMVCLELWSFELLVLASGLLPNPVLETSVLSICLNTSLTIWQISVGLGGAASIRVSNELGAGNPQVAKLAVYVIVGIAVAEGIVVVTVLLSIRKILGHAFSSDPKIIAYAASMIPIVACGNFLDGLQCVLSGVARGCGWQKIGACVNLGSYYLVGVPLGLLLGFHFHIGGRGLWLGIVTALSVQVLCLSLVTIFTNWDKEAKKATNRVGSSDDKDGDVQ”, the protein production entry was “failed”.

Take “MLYNSEVITYERAPKSEKDTKVENIKKLFILKVLIYAVSSFAISRVVMINSMVPFGIAFLACVLIYKKNDKASFLAAVGSLVGYISISGEVKDSVMYEIGVIIITLLMVVMKEKEDIKKLVTSAIFLLIEFIMFKILVEKLTVQSALIFTLIEIACVCSVYYIIRYGIICLDNIRTKHLFTNEEIISMSVLVALVISGTRNFDIYNVSIRNVLAMVFVIAISYIEGSSAGAAGGIAIGAIIGMNSSDVMIYIGVFGFLGFIAGVFKDFGKWITAGVYLIIFLIIIIYCKNHVDFSLMEAAITCIIFAGIPNKLYKKMECEFNWDRKQSDITNRYIEKMKDIFVKKLENFSEVLFTMSTTLNNLADNDKLTMKNKSCRLVENLADRVCGKCNMNSICWKREIYYTYAAFEELIQNFQEGINKIPDEIERKCVRRKELIKHTDMIINDYIMNEMWRMQVCSGREFMSAQVKNIGTSVENIIDEFSNELKFNVDVEEKIIRLLNKMGIPYKDIMCVNDKRNRNLVKLTMEACGGRQICVKHVLPVINEAVGTLMCVGDDGCSICPETNLCSVTFEETPKYYISSQIVRACKDGEEVNGDSYSFGKGKDGNYNIIISDGMGHGVQAEKESRAVIDLIEKFNESSLNRTMAINTVNSIMTLKFEEDEKFSTVDLCSVDLYSGDAEFIKVGGVTSFIKKKDKIEVINAKTLPIGVLDTVDMEVNHKKVENGDMIVMISDGVVNYDDENAGKVNWIIDFLKNSSANKPKELGEAMLKKAIELSGGKAKDDITIIISKVYSLY”: the protein production entry is given as “failed”.

With “TMNNEMSDPQIEEFYTIVKELEKFDTFTNFLDVHQPELAIVFGRTKRRVDELTSALISKGYKAEGLHGDITQAKRLEVLKKFKNDQINILVATDVAARGLDISGVSHVYNFDIPQDTESYTHRIGRTGRAGKEGIAVTFVNPIEMDYIRQIEDANGRKMSALRPPHRKEVLQAREDDIKEKVENWMSKESESRLKRISTELLNEYNDVDLVAALLQELVEANDEVEVQLTFEKPLSRKGRNGKPSGSR”, the protein production result was “failed”.

Take “MLAKSLGWLLAVSRRNYCMGSRTALASRPWSKHLADPQIDPTAYVHSFANVVGDVRIQPGVSVAPGSSIRADEGTPFWIGGNVLIQHGVVIHGLETGRVLGDDDQEYSVWIGPGTCVAHLALVHGPVYLGANCFIGFRSTVLNARVGDGAVVMMHSLVQDVEIPPNKLVPSGAMITQQHQADSLPDVQAGDRHFVQQIAAMHGQSASPTQGTDPTVCVLPESLPAVTPVTETPYINSIDNMSINSDITNQIRSLLAQGYGIGAEHANERRFKTKSWQSCGTADGFRPDQVIATVEGWLQEFAGEYVRLIGIDQGAKRRVVEVIIQRPGDVPGSPSRGTTTTKALSSGGSGRSAVAHQTGNLAGDSANQLRALLHQGYKIGLEYASARRFKTGSWLTGGTIGSHREGEALQELNRFLADHTNEYVRIIGIDPAGKRRVAEIVVHRPNGNGNGKPSSSSSSVGYKSAPVSSAGGSSAGGLTPEVIATVRGLLANGHSIGTEHTDKRRFKAKSWDTCPTIDGGREAEVLAKLEACLADHAGEYVRIIGIDRVGKRRVLEQIIQRPGDNVVAGRSPSSSSASTSSSASSNGFGSGNGGGYSNSAVRLDNSVVTQVRSLLAQGYKIGTEHTDKRRFKAKSWQSCAPITSTHESEVLRALEGCLADHNGEYVRLLGIDPTAKRRVLETIIQRP”: the protein production result was “failed”.

Turning to “VSVGTHPTFENSPSGTVLTSPPDGSAVDRATDAARRVVDALLRTDRGNANLERVAEELNSIAGHLEEHAPAVAERLIDMWNGEGVTRHDPVTGPENALAPPVVLEGLSDGSVRGTVTLTIPYQGPPGHVHGGVSALLLDHVLGVANAWGGKAGMTAQLSTRYHRPTPLFEPLTLTGKLMSVDGRKITTAGDIRTADGQVCVSVEGLFVDKTVPRPR”, the protein production entry was “not failed”.
